According to paper PMC3968158:

Key:
CrkL SH2 domain, 9-108 = CrkL SH2 domain, 9-108 (UniProt P46109); test: GST pull-down from infected-cell lysate, anti-Tir blot; settings: reference: WT Tir (Δtir EPEC + ptir); sites Y474
CrkII SH2 domain, 1-124 = CrkII SH2 domain, 1-124 (UniProt Q64010); test: as above; settings: reference: WT Tir (Δtir EPEC + ptir); sites Y474

In the case of “Tir (translocated intimin receptor) (from UniProt B7UM99) Tir Y474F (Δtir EPEC + ptirY474F)”, the “binding against the reference” value (CrkL SH2 domain, 9-108) is reported as “lost” and the “binding against the reference” value (CrkII SH2 domain, 1-124) is reported as “lost”.
